The record followed here is the supplement of paper PMC6379048.

As a reminder, the Kd is the equilibrium constant for the complex coming apart. Low readings indicate higher affinity, high ones lower affinity.

Holding throughout (assay): Kd (EC50 corrected by depletion factor)
Data set [1] deals with T1, AASS (UniProt Q9UDR5).
T1 sequence: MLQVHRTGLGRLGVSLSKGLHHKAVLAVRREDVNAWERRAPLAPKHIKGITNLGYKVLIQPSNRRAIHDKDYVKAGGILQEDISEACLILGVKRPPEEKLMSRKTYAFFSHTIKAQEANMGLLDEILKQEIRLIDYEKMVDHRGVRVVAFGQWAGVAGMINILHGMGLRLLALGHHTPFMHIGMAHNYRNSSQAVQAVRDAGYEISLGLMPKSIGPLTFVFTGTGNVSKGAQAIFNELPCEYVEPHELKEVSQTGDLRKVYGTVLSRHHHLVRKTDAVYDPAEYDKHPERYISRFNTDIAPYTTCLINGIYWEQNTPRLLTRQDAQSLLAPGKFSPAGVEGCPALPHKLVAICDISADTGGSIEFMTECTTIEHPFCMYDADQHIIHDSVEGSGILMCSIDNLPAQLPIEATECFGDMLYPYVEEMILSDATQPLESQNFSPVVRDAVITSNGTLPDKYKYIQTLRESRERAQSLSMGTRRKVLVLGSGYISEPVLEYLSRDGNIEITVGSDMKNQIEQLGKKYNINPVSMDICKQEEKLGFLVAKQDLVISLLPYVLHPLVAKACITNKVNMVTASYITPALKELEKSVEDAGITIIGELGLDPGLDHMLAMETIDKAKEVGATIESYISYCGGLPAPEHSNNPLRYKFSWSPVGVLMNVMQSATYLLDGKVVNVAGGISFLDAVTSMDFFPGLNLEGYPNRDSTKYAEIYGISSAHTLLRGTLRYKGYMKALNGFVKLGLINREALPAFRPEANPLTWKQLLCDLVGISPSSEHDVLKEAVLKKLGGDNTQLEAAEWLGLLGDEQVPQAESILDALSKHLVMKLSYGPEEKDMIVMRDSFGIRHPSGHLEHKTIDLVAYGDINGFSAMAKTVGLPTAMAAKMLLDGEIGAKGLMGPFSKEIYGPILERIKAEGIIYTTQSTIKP
An outline of the steps: (§1)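 Free RNA oligos (0 nM to 30 μM) competed for 1 h at 4°C in HEK293-FT lysate (2.5 mg protein/well) before a 30 min, 4°C pulldown with the same oligos on NHS-Sepharose beads. Bound proteins were quantified by label-free LC-MS/MS and normalised to the control. Kd was found by multiplying EC50, from a four-parameter log-logistic fit, by a protein-dependent depletion factor.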

Data set [2] concerns the target TUBB4B (UniProt P68371). An outline of the steps: as §1
The target in data set [3] is IGF2BP2 (UniProt Q9Y6M1). Put shortly:
as §1

The target in data set [4] is MRPL21 (UniProt Q7Z2W9). Put shortly: as §1
The target in data set [5] is CNBP (UniProt P62633). Put shortly: as §1
CNBP, sequence (P62633 whole entry): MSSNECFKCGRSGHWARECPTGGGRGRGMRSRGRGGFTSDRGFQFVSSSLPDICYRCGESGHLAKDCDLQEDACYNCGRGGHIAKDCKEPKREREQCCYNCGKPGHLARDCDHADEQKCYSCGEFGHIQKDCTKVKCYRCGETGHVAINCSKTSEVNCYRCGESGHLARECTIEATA
Data set [6] has as its target T2, HNRNPM (UniProt P52272).
T2 sequence: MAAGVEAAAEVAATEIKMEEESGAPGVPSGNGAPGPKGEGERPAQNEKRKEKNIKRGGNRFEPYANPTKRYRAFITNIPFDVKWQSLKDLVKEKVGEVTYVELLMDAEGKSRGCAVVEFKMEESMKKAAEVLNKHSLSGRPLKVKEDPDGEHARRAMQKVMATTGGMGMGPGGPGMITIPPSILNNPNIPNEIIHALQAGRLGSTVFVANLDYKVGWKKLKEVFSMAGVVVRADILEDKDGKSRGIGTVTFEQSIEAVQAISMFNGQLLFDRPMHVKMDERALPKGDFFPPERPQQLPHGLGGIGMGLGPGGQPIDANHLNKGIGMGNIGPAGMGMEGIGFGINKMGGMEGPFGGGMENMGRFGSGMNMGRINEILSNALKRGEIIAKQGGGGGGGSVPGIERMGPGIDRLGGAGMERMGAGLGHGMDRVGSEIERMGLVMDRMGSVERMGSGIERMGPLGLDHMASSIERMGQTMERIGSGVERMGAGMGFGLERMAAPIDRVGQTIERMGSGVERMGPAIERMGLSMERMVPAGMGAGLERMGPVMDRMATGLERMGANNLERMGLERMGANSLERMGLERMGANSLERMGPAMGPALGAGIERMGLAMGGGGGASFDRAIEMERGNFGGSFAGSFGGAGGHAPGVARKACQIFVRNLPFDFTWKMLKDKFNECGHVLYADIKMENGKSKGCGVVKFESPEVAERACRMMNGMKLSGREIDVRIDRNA
Put shortly:
as §1

Data set [7] addresses MRPS22 (UniProt P82650). Put shortly:
as §1

For data set [8], the target named is T3, TRIM56 (UniProt Q9BRZ2).
T3 sequence: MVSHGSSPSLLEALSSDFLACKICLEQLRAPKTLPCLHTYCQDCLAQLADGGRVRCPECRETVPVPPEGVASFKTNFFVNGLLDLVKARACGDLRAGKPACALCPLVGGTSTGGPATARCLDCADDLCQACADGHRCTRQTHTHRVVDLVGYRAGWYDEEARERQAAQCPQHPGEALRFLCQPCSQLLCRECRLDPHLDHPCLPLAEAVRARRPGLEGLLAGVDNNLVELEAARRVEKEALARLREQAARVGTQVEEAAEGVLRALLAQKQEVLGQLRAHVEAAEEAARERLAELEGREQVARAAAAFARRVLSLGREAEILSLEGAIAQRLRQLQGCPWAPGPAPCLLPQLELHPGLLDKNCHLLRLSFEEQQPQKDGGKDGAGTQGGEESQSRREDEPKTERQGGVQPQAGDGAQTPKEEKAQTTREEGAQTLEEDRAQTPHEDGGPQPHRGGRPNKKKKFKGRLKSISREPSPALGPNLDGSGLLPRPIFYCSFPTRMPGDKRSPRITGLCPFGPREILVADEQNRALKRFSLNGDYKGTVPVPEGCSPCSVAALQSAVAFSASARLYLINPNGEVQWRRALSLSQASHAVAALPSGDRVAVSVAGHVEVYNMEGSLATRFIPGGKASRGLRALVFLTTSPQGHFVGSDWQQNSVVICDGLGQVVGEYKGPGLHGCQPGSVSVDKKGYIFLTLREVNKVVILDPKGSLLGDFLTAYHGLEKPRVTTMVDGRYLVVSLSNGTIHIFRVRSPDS
Put shortly:
as §1

TUBB4B, sequence (P68371 whole entry): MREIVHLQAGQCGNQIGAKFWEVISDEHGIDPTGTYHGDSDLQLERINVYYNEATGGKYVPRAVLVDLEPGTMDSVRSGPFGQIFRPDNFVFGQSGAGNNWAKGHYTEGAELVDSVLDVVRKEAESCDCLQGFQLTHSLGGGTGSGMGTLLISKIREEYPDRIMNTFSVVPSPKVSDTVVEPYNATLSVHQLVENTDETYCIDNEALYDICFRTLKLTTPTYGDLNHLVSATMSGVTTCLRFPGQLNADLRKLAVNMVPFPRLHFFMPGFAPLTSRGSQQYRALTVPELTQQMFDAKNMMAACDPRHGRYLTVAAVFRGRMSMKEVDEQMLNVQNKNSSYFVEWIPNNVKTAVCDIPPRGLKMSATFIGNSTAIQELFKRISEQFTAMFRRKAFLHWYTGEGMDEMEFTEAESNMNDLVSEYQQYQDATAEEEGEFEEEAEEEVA
IGF2BP2, sequence (Q9Y6M1 whole entry): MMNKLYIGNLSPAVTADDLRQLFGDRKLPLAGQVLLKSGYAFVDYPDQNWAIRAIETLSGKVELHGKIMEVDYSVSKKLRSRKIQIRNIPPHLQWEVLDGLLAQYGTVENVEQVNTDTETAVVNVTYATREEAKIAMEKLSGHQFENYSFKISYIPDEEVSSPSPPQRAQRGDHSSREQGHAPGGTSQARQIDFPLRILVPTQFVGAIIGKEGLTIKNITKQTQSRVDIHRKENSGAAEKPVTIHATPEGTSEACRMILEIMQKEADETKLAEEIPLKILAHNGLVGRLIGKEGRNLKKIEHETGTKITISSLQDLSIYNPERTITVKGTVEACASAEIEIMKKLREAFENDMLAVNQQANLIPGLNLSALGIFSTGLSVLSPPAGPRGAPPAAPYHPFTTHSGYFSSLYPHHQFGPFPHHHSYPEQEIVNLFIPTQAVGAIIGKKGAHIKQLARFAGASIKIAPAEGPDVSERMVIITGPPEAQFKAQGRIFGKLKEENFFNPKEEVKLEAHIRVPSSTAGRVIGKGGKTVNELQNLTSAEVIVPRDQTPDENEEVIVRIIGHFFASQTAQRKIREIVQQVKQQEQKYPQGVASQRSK

As to AAUAAA, the Kd came to 1220 nM in data set [1] and 2430 nM in data set [2].
Consider CUGUCCU, for which the results for the Kd in data set [3] and in data set [4] were 924 nM and 57.2 nM, respectively.
For the sequence UAUUUAU, the Kd in data set [5] stood at 1270 nM; in data set [6] it was 4410 nM; in data set [7] it was 57.8 nM; in data set [8], 2880 nM.
